In PMC6252174 (Nature structural & molecular biology, 2018):

Biological target: the molecule itself
Experiment: cryo-EM structure

B1: Xenopus tropicalis TRPV4 crystallization and cryo-EM construct TRPV4_(cryst) (133–797 N647Q) (domain or fragment, UniProt A0A6I8RQZ3 133-797, looked up)
chain: APSPDPPPVIKMFNRHMLFDIVSRGSTAELEGFLPFLLAQKKRLTDEEFREASTGKTCLTKALMNLNGGKNDTIPMLIDIAEKTGNLREFINSPFRDVYYRGQTALHIAIERRCKHYVELLVEKGADVHAQARGRFFQPKDEGGYFYFGELPLSLAACTNQPDIVHYLTENAHKKADIRRQDSRGNTVLHALVAIADNTRENTKFVTKVYDLLVIKCVKLYPDSSLEAIFNNDSMSPLMMAAKLGKIGIFQHIIRLEIKDEEARHLSRKFRDWAYGPVYSSLYDLSMLDTCGEEVSVLEILVYNSKVENRHEMLAVEPINELLRDKWQKFGAVSFYISVVSYLIAMIIFTLIAYYRPMDGTPPYPYRTTMDYMRLAGEIVTLLTGVVFFITNIKDLFMKKCPGVNSLFIDGSFQLLYFIYSVLVIITAVLYLVGIESYLAVMVFALVLGWMNALYFTRGLKLTGTYSIMLQKILFKDLFRFLLVYLLFMIGYASALVSLLNPCTSQESCIETSSQCTVPEYPSCRDSSTFSKFLLDLFKLTIGMGDLEMINSAKYPAVFIILLVTYIILTFVLLLNMLIALMGETVGQVSKESKQIWKLQWATTILDIERSFPVCMRKAFRSGEMVTVGKNLDGTPDRRWCFRVDEVNWSHWNQNLGIINEDPGR
With B1 the “stoichiometry N” value was 4.
